Assay results as given in publication PMC7877763, “Aberrant binding of mutant HSP47 affects posttranslational modification of type I collagen and leads to osteogenesis imperfecta” (PLoS Genetics, 2021).

Legend:
[1] = target: T1, full length pepsinized type I collagen from mouse tail tendon (mouse, UniProt P11087 152-1207; Q01149 86-1125); assay: SPR; BIAcore X; type I collagen from mouse tail tendon immobilised on a CM5 chip by amide coupling (about 6,000 RU); HSP47 flowed over; 20°C; HBS-P (10 mM Hepes pH 7.4, 150 mM NaCl, 0.005% Surfactant P20); 10 ul/min; Langmuir binding model; conditions: both partners purified
T1 construct: collagen alpha-1(I) chain, mouse; collagen alpha-2(I) chain, mouse; Chain composition (two alpha1(I), one alpha2(I)) as the introduction tells of type I collagen in general; source: purified from mouse tail tendon (pepsinized); copies: 2 + 1
T1 sequence (P11087 152-1207, chain 1 of 2): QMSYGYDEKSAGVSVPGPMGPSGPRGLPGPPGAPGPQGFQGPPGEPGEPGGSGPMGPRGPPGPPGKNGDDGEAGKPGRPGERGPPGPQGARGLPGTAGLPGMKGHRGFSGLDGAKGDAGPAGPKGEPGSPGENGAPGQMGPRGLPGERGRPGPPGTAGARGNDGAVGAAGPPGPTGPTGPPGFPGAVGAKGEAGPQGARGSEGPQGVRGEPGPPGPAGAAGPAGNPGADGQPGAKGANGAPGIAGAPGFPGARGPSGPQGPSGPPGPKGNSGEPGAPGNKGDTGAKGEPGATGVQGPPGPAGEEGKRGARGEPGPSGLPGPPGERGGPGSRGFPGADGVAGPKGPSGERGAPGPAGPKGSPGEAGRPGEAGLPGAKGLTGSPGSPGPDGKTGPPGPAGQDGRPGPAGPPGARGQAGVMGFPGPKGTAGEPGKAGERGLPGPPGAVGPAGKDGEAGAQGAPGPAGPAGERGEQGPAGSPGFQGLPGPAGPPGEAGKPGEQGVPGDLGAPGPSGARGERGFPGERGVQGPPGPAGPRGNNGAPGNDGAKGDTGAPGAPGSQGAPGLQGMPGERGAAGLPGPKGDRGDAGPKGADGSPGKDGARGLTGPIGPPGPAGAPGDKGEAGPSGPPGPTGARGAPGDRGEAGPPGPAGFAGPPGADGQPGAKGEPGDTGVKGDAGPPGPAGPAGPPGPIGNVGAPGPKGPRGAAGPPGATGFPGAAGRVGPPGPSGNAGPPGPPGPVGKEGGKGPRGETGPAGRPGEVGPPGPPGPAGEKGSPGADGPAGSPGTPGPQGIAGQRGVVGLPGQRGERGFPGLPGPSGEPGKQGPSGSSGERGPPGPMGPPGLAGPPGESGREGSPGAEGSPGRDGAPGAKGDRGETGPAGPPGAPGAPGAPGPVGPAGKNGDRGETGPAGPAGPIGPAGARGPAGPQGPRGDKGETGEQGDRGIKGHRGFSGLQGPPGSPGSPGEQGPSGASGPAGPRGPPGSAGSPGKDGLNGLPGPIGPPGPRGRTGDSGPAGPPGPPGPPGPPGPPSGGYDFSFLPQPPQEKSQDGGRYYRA
T1 sequence (Q01149 86-1125, chain 2 of 2): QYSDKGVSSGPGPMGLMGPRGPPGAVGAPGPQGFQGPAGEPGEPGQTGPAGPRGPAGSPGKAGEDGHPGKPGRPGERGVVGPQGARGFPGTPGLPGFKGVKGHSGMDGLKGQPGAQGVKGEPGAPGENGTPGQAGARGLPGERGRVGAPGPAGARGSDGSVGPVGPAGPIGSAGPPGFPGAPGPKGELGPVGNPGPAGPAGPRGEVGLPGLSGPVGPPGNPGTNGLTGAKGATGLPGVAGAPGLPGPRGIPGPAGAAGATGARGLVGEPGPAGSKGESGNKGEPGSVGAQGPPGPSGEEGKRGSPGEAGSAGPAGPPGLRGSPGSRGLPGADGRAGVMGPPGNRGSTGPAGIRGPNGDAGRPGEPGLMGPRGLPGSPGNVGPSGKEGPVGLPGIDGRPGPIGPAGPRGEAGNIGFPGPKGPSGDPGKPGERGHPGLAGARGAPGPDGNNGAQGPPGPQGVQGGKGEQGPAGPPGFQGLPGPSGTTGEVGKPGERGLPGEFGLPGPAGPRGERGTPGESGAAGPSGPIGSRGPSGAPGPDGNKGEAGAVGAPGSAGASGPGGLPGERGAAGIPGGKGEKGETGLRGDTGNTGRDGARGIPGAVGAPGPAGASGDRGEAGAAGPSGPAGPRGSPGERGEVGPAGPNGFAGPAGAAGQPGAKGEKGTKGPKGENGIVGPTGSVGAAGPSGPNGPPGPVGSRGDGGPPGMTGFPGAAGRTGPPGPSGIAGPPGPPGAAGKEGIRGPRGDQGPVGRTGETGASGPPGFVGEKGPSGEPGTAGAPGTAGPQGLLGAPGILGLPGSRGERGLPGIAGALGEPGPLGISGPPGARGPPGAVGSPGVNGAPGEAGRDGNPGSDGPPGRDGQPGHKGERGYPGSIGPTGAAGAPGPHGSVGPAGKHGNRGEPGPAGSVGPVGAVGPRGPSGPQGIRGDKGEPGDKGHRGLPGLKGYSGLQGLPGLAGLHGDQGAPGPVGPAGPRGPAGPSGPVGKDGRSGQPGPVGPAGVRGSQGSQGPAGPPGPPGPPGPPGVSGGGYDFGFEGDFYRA

[2] = target: T2, type I collagen from rat tail (rat, UniProt P02454 152-1207; P02466 86-1125); assay: ELISA; ELISA-like binding assay; type I collagen from rat tail coated at 10 ug/mL on MaxiSorp plates (coating of GPR-foldon not described); His-tagged HSP47 at 1.2 to 5,000 nM in solution; detected with HRP-coupled anti-His antibody; four-parameter logistic fit; conditions: both partners purified
T2 construct: collagen alpha-1(I) chain, rat; collagen alpha-2(I) chain, rat; Chain composition as the introduction tells of type I collagen in general; also called full length type I collagen; source: bought: BD Bioscience; copies: 2 + 1
T2 sequence (P02454 152-1207, chain 1 of 2): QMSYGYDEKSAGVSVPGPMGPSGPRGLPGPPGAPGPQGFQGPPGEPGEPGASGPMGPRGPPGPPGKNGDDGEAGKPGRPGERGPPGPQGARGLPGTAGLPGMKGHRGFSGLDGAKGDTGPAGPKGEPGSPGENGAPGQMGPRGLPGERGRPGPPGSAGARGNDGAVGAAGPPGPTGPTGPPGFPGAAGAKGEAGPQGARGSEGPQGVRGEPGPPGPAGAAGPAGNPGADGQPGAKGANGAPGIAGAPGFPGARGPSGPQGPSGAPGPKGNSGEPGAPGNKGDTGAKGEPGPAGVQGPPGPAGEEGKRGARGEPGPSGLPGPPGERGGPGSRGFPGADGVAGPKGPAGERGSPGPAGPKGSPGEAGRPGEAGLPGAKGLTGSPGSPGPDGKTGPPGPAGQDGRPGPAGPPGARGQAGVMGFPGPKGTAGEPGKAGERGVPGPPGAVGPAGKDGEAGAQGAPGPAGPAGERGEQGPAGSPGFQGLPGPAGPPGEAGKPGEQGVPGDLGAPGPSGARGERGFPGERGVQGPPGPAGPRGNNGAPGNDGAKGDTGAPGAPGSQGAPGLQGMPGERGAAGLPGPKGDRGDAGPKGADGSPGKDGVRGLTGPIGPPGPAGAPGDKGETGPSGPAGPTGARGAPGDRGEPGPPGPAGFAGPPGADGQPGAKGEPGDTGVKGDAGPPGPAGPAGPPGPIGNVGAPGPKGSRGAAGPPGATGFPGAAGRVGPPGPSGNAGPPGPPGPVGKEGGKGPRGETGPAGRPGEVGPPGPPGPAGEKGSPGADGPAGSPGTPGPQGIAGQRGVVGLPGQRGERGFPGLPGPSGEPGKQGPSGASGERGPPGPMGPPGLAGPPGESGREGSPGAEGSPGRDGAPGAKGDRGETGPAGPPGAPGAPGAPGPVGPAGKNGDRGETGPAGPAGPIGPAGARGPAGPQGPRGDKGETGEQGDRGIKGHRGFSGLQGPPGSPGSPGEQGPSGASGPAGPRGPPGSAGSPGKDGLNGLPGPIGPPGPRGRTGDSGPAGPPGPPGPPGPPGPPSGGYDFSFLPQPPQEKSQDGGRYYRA
T2 sequence (P02466 86-1125, chain 2 of 2): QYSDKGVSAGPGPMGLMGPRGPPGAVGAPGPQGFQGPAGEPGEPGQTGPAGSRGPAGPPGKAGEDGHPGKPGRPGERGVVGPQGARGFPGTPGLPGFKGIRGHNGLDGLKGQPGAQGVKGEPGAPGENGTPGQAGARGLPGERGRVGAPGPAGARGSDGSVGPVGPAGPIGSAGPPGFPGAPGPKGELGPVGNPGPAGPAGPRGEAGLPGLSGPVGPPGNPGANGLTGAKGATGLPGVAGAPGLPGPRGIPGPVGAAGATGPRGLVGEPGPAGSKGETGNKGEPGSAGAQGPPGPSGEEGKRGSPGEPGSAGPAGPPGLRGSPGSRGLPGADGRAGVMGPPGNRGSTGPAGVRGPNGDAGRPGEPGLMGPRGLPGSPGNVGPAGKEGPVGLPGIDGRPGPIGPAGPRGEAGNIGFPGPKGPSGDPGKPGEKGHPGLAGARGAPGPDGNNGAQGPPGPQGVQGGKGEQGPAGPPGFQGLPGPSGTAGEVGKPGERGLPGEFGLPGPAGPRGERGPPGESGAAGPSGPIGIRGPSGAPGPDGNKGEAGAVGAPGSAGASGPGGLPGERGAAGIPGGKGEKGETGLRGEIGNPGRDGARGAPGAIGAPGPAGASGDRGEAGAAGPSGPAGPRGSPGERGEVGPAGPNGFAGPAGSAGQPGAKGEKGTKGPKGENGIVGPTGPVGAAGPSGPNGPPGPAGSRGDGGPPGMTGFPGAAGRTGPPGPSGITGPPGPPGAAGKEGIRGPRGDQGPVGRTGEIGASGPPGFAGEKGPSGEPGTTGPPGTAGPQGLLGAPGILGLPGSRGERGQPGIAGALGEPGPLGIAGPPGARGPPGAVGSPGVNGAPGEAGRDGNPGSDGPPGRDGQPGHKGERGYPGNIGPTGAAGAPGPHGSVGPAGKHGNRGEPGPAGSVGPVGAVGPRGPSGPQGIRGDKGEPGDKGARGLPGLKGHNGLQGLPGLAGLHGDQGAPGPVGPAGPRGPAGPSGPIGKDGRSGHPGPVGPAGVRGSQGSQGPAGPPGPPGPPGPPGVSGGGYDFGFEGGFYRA

B1: recombinant wild-type canine HSP47 (natural protein, UniProt C7C419 36-418, looked up)
chain: LSPKAATLAERSAGLAFSLYQAMAKDQAVENILLSPVVVASSLGLVSLGGKATTASQAKAVLSAEQLRDEEVHAGLGELLRSLSNSTARNVTWKLGSRLYGPSSVSFAEDFVRSSKQHYNCEHSKINFRDKRSALQSINEWAAQTTDGKLPEVTKDVERTDGALLVNAMFFKPHWDEKFHHKMVDNRGFMVTRSYTVGVTMMHRTGLYNYYDDEKEKLQIVEMPLAHKLSSLIILMPHHVEPLERLEKLLTKEQLKIWMGKMQKKAVAISLPKGVVEVTHDLQKHLAGLGLTEAIDKNKADLSRMSGKKDLYLASVFHATAFEWDTEGNPFDQDIYGREELRSPKLFYADHPFIFLVRDTQSGSLLFIGRLVRPKGDKMRDEL
notes: HSP47 (serpin H1), canine, residues 36-418 printed as 36LSP; RDEL418, in a pJExpress411 vector; The methods describe a strep-tagged construct; the ELISA methods speak of His-tagged HSP47 proteins detected by an anti-His antibody; also called wild-type HSP47; WT HSP47; source: E. coli BL21 (DE3), purified (Streptactin column, Superdex 200 SEC)
Q: For B1, which Kd [1] is on record?
A: Its Kd is 60 nM.

Q: What about the Kd [2] of the same binder?
A: Its Kd is 139 nM.

B2: recombinant canine HSP47-R222S (natural protein, UniProt C7C419 36-418, looked up)
chain: LSPKAATLAERSAGLAFSLYQAMAKDQAVENILLSPVVVASSLGLVSLGGKATTASQAKAVLSAEQLRDEEVHAGLGELLRSLSNSTARNVTWKLGSRLYGPSSVSFAEDFVRSSKQHYNCEHSKINFRDKRSALQSINEWAAQTTDGKLPEVTKDVERTDGALLVNAMFFKPHWDEKFHHKMVDNSGFMVTRSYTVGVTMMHRTGLYNYYDDEKEKLQIVEMPLAHKLSSLIILMPHHVEPLERLEKLLTKEQLKIWMGKMQKKAVAISLPKGVVEVTHDLQKHLAGLGLTEAIDKNKADLSRMSGKKDLYLASVFHATAFEWDTEGNPFDQDIYGREELRSPKLFYADHPFIFLVRDTQSGSLLFIGRLVRPKGDKMRDEL
notes: HSP47 (serpin H1), canine, residues 36-418 (36LSP... RDEL418) with R222S introduced by Quikchange mutagenesis; The substitution is the one found in the human patient, placed in the canine protein; Strep tag by the purification methods, His tag by the ELISA methods; also called R222S HSP47; source: E. coli BL21 (DE3), purified as wild-type HSP47 (Streptactin column, Superdex 200 SEC)
Q: What does the source list for B2?
A: Kd [1]: 640 nM; Kd [2]: ~3600 nM
